From patent US20160002331A1 (Pfizer, published 2016) come the findings set out here.

“And” between values parts separate entries of the source, which are not always exact repeats. Equal values may be shown once.

The target in one assay is T1, Human Notch2 NRR-Fc (human, UniProt Q04721 1425-1677, limits assumed).
T1 construct: domain: NRR region; Made in CHO-PACE cells; also called human Notch2 NRR-Fc fusion protein; not shown: human IgG1 Fc fragment
T1 sequence (looked up): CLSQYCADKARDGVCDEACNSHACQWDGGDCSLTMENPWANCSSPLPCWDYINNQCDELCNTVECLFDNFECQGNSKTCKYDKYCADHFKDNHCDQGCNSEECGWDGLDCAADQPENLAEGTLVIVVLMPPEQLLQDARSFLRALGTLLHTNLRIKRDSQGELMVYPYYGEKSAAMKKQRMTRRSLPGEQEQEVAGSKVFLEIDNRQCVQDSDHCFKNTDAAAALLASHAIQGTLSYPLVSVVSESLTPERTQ
Nature of the assay: binding to recombinant NRR-Fc fusion protein (N/B represents non-binding).

For another assay, the target named is T2, Human Notch3 NRR-Fc (human, UniProt Q9UM47 1378-1643, limits assumed).
T2 construct: domain: NRR region; also called human Notch3 NRR-Fc fusion protein; not shown: human IgG1 Fc fragment
T2 sequence (looked up): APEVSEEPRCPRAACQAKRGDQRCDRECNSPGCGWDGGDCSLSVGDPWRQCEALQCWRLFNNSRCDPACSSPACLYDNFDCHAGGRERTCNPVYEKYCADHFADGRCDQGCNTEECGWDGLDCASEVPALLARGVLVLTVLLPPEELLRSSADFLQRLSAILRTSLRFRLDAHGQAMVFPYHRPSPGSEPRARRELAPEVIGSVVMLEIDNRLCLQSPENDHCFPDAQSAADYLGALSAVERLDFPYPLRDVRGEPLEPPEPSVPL
Described as above.

The target in another assay is T3, Mouse Notch3 NRR-Fc (mouse, UniProt Q61982 1379-1643, limits assumed).
T3 construct: domain: NRR region; also called mouse Notch3 NRR-Fc fusion protein; not shown: Fc part
T3 sequence (looked up): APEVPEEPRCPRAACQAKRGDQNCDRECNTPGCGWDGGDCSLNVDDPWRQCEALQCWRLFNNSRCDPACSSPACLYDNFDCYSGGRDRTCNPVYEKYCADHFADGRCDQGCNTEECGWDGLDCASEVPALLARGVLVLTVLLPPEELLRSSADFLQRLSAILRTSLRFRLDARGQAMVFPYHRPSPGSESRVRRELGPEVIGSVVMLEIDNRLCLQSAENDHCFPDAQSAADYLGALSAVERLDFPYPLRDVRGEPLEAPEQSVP
The assay is described as above.

The target in assay [1] is T4, full-length human Notch1 expressed on the cell surface (human, UniProt P46531 19-2555). The assay is described as follows: cell-based or functional assay.
Assay [2] has as its target T5, full-length mouse Notch1 expressed on the cell surface of U-2 OS cells (mouse, UniProt Q01705 19-2531). Nature of the assay: cell-based or functional assay.
Assay [3] deals with T4, full-length human Notch1 expressed on …. The assay is described as follows: cell-based or functional assay. This is another data set of the same source.
The target is the same in assay [4]. Nature of the assay: cell-based or functional assay. The source holds these as a separate data set.
For assay [5], the target named is T6, human Notch1 NRR_Avi_His recombinant protein (human, UniProt P46531 1434-1737).
T6 construct: Secreted from CHO-PACE cells; cleaved at S1 into an N-terminal ~26 kDa half (LNR-A, B, C, HD1) and a C-terminal ~12 kDa half (HD2 and tag) that stay associated non-covalently; written here as one chain; also called recombinant human Notch1 NRR; human Notch1 NRR immunogen
T6 sequence: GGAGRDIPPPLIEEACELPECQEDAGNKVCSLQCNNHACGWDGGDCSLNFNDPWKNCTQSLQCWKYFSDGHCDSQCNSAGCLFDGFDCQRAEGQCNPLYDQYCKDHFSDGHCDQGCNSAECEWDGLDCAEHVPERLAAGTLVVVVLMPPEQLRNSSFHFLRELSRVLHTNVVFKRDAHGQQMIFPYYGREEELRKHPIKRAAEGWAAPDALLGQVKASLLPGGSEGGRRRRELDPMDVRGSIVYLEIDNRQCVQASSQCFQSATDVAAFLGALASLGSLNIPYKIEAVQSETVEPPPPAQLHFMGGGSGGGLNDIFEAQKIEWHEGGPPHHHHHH
The assay is described as follows: SPR (Biacore T100), ratio of KD to that of rat 351. Background: SPR reads the build-up and loss of mass on a sensor chip optically.

The target of assay [6] is T4, full-length human Notch1 expressed on …. The assay is described as follows: cell-based ELISA, U-2 OS cells expressing full-length human Notch1. The method, then: (§1) Supernatants from clones displaying positive binding to immunogens in recombinant Notch1 NRR based ELISAs described above were then screened for cell surface Notch1 binding in a cell-based ELISA. U-2 OS cells stably overexpressing human or mouse full length Notch1 protein on cell surface were plated at 50,000 cells/well in 96 well plates (white opaque, BD/VWR) the day before ELISA assay. On the day of the ELISA, culture media were removed from wells and serially diluted (1:3 in blocking buffer) antibody solutions or hybridoma culture supernatants were applied to the plate. Plates were incubated at room temperature for 2 hours before being washed with PBS-Mg/Ca. HRP-conjugated secondary antibody was then applied and incubated with cells for 1 hour as described above for recombinant protein ELISA. Plates were washed with PBS-Mg/Ca before being developed with Pico-Chemiluminescent developing kit (Thermal Scientific), and chemiluminescence measurements were performed per manufacturer's instructions. Data plotting and analyses were performed with Microsoft Excel and Graphpad-Prizm software.
In general terms: ELISA stands for enzyme-linked immunosorbent assay.

The target in assay [7] is T5, full-length mouse Notch1 expressed on …. The assay is described as follows: cell-based ELISA, U-2 OS cells expressing full-length mouse Notch1. The method, then: as §1
Assay [8] addresses T6, human Notch1 NRR_Avi_His recombinant …. The assay is described as follows: SPR (Biacore T100), antibody captured by anti-human IgG-Fc, NRR_Avi_His as analyte, 1:1 Langmuir model. The method, then:
The kinetic constants of the anti-Notch1 NRR interactions were determined by surface plasmon resonance (Biacore® T100, Biacore Inc., Piscataway, N.J.). Flow cells of a CM5 chip were immobilized with approximately 10,000 Resonance Unit (RU) of anti-human IgG-Fc (Biacore®) in 10 mM Glycine, pH 5.0 at 10 μl/min for 600 seconds. […] Association of four concentrations of human Notch1 NRR_Avi_His recombinant protein (from 3.7-100 nM) and a zero concentration (running buffer) at 100 μl/min were recorded for 3 minutes in TBS with 1 mM CaCl₂. Dissociation of the complexes was measured for 10 minutes. The surface of the chip was regenerated by injecting 3M MgCl₂ with 3 mM EGTA for 60 seconds at 10 μl/min. Curves obtained after subtraction of the reference and buffer signals were fitted to a 1:1 Langmuir binding model with Biacore® T100 Evaluation Software (Biacore®).

Assay [9] has as its target T4, full-length human Notch1 expressed on …. The assay is described as follows: competition ELISA on U-2 OS cells expressing full-length human Notch1; competitor 0.8 nM biotinylated rat 351. The method, then: (§2) In a similar manner as described for recombinant protein or cell based ELISAs, 96 well cell culture plates were either coated with Notch1 NRR-Avi_His protein (hi-bound co-Star plates), or seeded with full length Notch1 expressing U-2 OS cells (cell culture plate, Co-star), respectively.
(§3) After incubation for 2 hours, the plates were washed, as described above, and HRP-conjugated streptavidin (Southern Biotech) diluted 1:5000 in blocking buffer was applied. Incubation with streptavidin was allowed for 30 min before the plates were washed again and developed with TMB solution for 10 minutes. Developing reaction was stopped by adding 0.18M H₂SO₄ and absorbance at 450 nm was measured. Data plotting and analyses were performed with Microsoft Excel and Graphpad-Prizm software.

For assay [10] the target is unchanged. The assay is described as follows: cell-based or functional assay. The source holds these as a separate data set.
Assay [11] has the same target. Nature of the assay: cell-based or functional assay. The source holds these as a separate data set.
In assay [12] the target is T5, full-length mouse Notch1 expressed on …. Nature of the assay: cell-based or functional assay. The source holds these as a separate data set.
In assay [13] the target is T7, full-length human Notch3 expressed on U-2 OS cell surface (human, UniProt Q9UM47 40-2321).
T7 construct: whole, on cells; also called Notch3 U2-OS cells; NotchS U-2 OS cells
The assay is described as follows: binding to Notch3 U-2 OS cells (N/B represents non-binding).

In assay [14] the target is T6, human Notch1 NRR_Avi_His recombinant …. The assay is described as follows: competition ELISA on coated human Notch1 NRR_Avi_His; competitor 0.8 nM biotinylated rat 438. The method, then:
as §2, §3

For assay [15], the target named is T4, full-length human Notch1 expressed on …. The assay is described as follows: competition ELISA on U-2 OS cells expressing full-length human Notch1; competitor 0.8 nM biotinylated rat 438. The method, then: as §2, §3

T4 sequence (P46531 19-2555): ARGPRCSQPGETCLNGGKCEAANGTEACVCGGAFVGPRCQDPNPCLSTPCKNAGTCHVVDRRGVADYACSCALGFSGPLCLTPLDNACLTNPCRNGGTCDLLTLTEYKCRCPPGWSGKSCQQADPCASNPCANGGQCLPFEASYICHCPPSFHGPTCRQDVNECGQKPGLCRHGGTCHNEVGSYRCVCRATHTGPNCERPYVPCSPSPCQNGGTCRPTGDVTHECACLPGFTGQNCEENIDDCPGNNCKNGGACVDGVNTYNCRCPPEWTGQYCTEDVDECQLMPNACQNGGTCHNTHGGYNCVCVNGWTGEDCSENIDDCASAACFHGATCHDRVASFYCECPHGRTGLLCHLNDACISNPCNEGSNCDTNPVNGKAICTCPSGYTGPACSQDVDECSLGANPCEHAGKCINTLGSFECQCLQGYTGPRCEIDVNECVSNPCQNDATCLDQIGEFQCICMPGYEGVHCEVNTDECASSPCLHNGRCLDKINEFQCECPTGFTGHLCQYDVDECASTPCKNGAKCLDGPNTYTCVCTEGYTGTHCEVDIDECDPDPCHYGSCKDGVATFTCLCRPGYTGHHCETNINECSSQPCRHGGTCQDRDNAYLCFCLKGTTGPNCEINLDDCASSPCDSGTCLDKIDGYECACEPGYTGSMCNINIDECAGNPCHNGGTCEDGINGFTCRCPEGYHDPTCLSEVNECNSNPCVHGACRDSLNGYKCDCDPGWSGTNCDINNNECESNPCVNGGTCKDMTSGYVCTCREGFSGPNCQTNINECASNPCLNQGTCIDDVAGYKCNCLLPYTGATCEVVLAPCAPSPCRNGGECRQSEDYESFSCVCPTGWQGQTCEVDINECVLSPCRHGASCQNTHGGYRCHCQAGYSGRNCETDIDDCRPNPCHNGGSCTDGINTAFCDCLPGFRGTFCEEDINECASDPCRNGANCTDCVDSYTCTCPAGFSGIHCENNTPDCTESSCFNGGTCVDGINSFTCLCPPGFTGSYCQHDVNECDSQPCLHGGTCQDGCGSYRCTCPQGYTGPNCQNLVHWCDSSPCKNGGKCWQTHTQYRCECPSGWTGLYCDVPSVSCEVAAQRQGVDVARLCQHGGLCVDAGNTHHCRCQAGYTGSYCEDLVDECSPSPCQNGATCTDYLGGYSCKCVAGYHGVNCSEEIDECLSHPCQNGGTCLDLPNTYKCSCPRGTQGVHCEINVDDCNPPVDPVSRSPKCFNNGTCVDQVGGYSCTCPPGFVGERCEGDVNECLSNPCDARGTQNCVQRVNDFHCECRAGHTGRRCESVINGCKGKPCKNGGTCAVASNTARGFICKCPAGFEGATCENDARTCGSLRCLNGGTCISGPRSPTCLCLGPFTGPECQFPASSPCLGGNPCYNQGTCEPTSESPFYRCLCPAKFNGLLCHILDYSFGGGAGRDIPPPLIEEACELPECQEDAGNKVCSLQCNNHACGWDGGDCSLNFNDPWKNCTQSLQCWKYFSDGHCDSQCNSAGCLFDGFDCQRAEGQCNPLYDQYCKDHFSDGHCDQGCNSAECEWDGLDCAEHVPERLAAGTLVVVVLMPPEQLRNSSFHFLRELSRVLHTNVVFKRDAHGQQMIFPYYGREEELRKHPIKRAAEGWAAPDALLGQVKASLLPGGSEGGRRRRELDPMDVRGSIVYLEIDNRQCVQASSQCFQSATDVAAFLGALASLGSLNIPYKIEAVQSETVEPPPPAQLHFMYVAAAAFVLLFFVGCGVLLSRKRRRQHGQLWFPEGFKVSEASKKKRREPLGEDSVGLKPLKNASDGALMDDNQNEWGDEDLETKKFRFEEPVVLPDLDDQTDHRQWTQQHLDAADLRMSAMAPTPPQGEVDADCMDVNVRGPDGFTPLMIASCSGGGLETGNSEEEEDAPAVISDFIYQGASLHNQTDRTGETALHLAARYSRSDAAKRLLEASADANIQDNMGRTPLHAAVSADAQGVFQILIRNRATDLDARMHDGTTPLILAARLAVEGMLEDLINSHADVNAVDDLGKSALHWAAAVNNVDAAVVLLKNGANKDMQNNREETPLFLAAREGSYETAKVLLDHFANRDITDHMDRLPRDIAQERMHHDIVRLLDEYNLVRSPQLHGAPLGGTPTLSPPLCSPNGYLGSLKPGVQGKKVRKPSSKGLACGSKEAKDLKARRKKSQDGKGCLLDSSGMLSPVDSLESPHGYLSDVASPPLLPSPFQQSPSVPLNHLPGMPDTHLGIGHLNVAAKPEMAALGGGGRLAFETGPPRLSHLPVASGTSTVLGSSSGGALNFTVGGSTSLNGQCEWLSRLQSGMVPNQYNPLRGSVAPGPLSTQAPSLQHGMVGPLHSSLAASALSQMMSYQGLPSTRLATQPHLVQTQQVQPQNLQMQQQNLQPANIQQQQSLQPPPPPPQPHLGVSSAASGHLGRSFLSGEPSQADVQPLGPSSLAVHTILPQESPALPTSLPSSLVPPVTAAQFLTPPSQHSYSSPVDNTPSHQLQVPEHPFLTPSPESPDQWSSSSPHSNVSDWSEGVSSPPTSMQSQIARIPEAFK
T5 sequence (Q01705 19-2531): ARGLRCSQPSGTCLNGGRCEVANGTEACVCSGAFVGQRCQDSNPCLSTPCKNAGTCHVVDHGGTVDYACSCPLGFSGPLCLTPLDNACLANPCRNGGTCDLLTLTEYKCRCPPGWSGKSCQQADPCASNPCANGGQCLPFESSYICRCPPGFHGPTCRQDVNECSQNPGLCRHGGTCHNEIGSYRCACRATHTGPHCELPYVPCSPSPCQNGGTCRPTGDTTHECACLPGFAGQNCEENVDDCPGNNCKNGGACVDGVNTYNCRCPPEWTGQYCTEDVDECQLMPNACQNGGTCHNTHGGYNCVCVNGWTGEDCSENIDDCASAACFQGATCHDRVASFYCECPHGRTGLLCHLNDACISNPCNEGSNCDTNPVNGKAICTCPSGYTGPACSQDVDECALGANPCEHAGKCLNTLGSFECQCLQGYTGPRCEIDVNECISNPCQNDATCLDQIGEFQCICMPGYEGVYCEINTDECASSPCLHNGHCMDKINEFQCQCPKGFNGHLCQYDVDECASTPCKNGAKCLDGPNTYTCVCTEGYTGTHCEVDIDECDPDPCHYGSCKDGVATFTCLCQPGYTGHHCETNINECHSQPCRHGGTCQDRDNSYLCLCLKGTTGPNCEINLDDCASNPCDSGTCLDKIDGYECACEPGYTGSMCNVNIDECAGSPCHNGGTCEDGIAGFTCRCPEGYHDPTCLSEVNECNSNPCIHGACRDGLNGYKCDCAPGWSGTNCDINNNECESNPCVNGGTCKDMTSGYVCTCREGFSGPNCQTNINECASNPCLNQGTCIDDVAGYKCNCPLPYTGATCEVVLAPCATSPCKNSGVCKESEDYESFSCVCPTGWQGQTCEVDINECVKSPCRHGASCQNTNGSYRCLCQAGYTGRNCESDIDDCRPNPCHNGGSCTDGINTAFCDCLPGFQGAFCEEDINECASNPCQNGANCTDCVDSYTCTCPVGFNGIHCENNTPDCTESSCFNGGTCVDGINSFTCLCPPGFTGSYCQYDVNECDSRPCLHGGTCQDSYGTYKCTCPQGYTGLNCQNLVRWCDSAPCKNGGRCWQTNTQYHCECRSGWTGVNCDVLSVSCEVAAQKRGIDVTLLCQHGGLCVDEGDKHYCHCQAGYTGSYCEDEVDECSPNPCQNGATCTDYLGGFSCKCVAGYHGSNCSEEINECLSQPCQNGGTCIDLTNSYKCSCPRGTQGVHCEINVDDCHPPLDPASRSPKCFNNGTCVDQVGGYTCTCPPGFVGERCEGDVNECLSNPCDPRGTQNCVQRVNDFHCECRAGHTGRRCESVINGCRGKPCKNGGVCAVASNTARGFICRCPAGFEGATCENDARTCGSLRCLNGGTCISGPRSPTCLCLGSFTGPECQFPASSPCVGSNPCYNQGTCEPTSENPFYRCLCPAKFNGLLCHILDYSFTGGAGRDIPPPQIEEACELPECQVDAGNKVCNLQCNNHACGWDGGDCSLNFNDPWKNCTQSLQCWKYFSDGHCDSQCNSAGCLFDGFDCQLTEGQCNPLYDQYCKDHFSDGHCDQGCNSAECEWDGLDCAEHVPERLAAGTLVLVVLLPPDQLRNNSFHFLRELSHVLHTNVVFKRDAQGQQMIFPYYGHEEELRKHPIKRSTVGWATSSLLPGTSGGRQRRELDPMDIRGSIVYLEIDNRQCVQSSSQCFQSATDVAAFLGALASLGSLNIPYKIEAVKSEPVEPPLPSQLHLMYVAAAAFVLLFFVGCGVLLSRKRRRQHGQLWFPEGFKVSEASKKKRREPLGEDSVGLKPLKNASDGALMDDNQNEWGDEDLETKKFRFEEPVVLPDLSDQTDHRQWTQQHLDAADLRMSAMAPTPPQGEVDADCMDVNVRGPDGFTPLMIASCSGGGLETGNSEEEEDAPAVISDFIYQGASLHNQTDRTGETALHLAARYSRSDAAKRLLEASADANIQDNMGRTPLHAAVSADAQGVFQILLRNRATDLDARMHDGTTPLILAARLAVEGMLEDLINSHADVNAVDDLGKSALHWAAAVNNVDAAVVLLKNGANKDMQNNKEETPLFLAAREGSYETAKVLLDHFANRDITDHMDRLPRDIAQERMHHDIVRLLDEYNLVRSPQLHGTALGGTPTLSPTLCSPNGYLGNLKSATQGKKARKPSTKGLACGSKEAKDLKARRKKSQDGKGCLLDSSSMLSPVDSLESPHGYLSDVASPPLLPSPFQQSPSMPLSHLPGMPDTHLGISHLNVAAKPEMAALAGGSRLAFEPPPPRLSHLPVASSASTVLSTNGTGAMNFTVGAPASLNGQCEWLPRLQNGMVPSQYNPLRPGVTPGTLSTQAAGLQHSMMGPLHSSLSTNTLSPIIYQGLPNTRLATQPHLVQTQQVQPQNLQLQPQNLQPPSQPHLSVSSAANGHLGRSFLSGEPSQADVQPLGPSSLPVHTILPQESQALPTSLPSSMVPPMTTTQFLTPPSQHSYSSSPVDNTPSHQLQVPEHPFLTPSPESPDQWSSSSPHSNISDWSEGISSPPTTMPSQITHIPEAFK

B1: humanized 351 VH1.0/VL1.1 (antibody, human IgG1, kappa, V domains shown)
VH: EVQLVESGGGLVQPGGSLRLSCAASGFTFSHYGMNWVRQAPGKGLEWVASISRSGSYIRYVDTVKGRFTISRDNAKNSLYLQMNSLRAEDTAVYYCAREGQFGDYFEYWGQGTLVTVSS
VL: DIQMTQSPSSLSASVGDRVTITCRASQKISTNLHWYQQKPGKAPKILIKYASQTISGVPSRFSGSGSGTDFTLTISSLQPEDFATYYCQQTNSWPLTFGGGTKVEIKR
notes: full chains (VH1.0)-hIgG1-3M and (VL1.1)-hkappa
For the molecule B1, the binding result with Human Notch2 NRR-Fc, with Human Notch3 NRR-Fc and with Mouse Notch3 NRR-Fc was “no binding” each time.

B2: parental rat 351 (antibody, V domains shown)
VH: EVQLVESGGGLVQPGRSLKVSCLASGFTFSHYGMNWIRQAPGKGLDWVASISRSGSYIRYVDTVKGRFTVSRDIAKNTLYLQMTSLRSEDTALYYCAREGQFGDYFEYWGQGVMVTVSS
VL: DIMLTQSPATLSVTPGERISLSCRASQKISTNLHWYQQKPNESPRILIKYASQTISGIPSRFSGSGSGTDFTLHINTVEPEDFSVYYCQQTNSWPLTFGSGTKLEIK
notes: Rat monoclonal IgG from a hybridoma
Usually EC50 stands for the concentration needed to bring the measured effect to its halfway point. One may read the Kd as the concentration at which binding is half-saturated. As usually defined, the koff is the first-order rate constant of dissociation. For orientation: kon means the second-order rate constant of association. In the case of B2, the “Neutralization activity (Human RGA), IC50” value in assay [1] is 400 pM. In addition, in [2], the “Neutralization activity (murine RGA), IC50” value worked out at 300 pM. For the same molecule, in [3], the “IC50, Notch1 signaling inhibition co-culture reporter assay” value came out at 190 pM and the “Maximal Inhibition (%), Notch1 signaling inhibition co-culture reporter assay” value came to 87.5%. Moreover, in [4], the “Normalized Notch1^ICD level, CCD1076SK fibroblasts on DLL4, 0.001 µg/ml antibody” value was 0.826 relative to untreated; the “Normalized Notch1^ICD level, CCD1076SK fibroblasts on DLL4, 0.01 µg/ml antibody” value is 0.848 relative to untreated; the “Normalized Notch1^ICD level, CCD1076SK fibroblasts on DLL4, 0.1 µg/ml antibody” value is 0.554 relative to untreated; the “Normalized Notch1^ICD level, CCD1076SK fibroblasts on DLL4, 1 µg/ml antibody” value is 0.393 relative to untreated. Also, the “Normalized Notch1^ICD level, CCD1076SK fibroblasts on DLL4, 10 µg/ml antibody” value in [4] is 0.302 relative to untreated. Further, the “Fold difference from rat 351” value in assay [5] was found to be 1 fold. Further, the 50% effective concentration (EC50) in [6] stood at 100 pM. In assay [7], the 50% effective concentration (EC50) worked out at 70 pM. Also, in [8], the dissociation constant (Kd) was 2330 pM and 2300 pM; the off-rate (koff) worked out at 0.00102 s⁻¹; the association rate constant (kon) turned out to be 439000 M⁻¹ s⁻¹. This molecule also registered an EC50 in [9] of 4430 pM.

B3: rat 438-mIgG1 (antibody, V domains shown)
VH: AVQLVESGGGLVQPGRSLKLSCTASGFTFSSFAMAWVRQAPTKGLEWVASISYGGADTYYRDSVKGRFTISRDNAKSSLYLQMDSLRSEDTSTYYCAKDLPYYGYTPFVMDAWGQGTSVTVSS
VL: DIMLTQSPPTLSVTPGETISLSCRASQRINTDLHWYQQKPNESPRVLIKFASQTISGVPSRFSGSGSGTDFTLNINRVEPEDFSVYYCQQSNSWPYTFGAGTKLELK
notes: also called r438-mIgG; Rat438-mlgG
For B3, in [10], the “Firefly/Renilla Luminescence, human Notch1 reporter cells + 5 mM EDTA, 0.01 µg/mL antibody” value was 338 Firefly/Renilla ratio; the “Firefly/Renilla Luminescence, human Notch1 reporter cells + 5 mM EDTA, 0.1 µg/mL antibody” value came to 246 Firefly/Renilla ratio; the “Firefly/Renilla Luminescence, human Notch1 reporter cells + 5 mM EDTA, 1 µg/mL antibody” value was 117 Firefly/Renilla ratio; the “Firefly/Renilla Luminescence, human Notch1 reporter cells + 5 mM EDTA, 10 µg/mL antibody” value amounted to 54.3 Firefly/Renilla ratio. Besides, the “Firefly/Renilla Luminescence, human Notch1 reporter cells + 5 mM EDTA, 30 µg/mL antibody” value in assay [10] amounted to 46.9 Firefly/Renilla ratio. Also, the “IC50, human Notch1 reporter gene co-culture assay (DLL4-HEK293)” value in assay [11] was determined as 680 pM. Moreover, in [12], the “IC50, mouse Notch1 reporter gene co-culture assay (DLL4-HEK293)” value was found to be 710 pM. Besides, the binding result in assay [13] is recorded as “no binding”. The concentration for a half-maximal effect (EC50) in assay [14] came to 1500 pM. In [15], the EC50 amounted to 3600 pM.
